This is an account of results in patent US20250042943A1, “FAP DETECTION” (THE UNIVERSITY COURT OF THE UNIVERSITY OF EDINBURGH, priority 2021, published 2025).

“Also recorded” adds a separate entry of the source. Where a SMILES comes first, the peptide text is derived from it. [ ]: non-standard residue; d: D form. The star is where a group is joined. 5FAM = O=C1OC2(c3ccc(O)cc3Oc3cc(O)ccc32)c2ccc(C(=O)*)cc21; X1 = CN(C)c1ccc(N=Nc2ccccc2C(=O)*)cc1; AEEA = NCCOCCOCC(=O)O

Data set [1] can be described thus: Toxicity in rats, intravenous (bolus) dosing for 7 days. The conditions noted are these: intravenous (bolus) injection of 0.1 mg for 7 days. The class given is in vivo. The procedure:
The potential toxicity of the FAP probe was assessed by dosing rats with an intravenous (bolus) injection of 0.1 mg of the FAP3 probe for 7 days.

Data set [2] relates to cancer associated fibroblasts (CAFs) from NSCLC patient samples. Kind of data set: Assessment on cancer associated fibroblasts (CAFs). The data set is classed as cell-based, human. The conditions noted are these: co-incubated with FAP3. The procedure: CAFs were isolated from NSCLC patient samples as previously described methods known in the art. Briefly, tissue samples were minced with forceps and incubated for an hour in prewarmed RPMI media (Gibco) containing collagenase IV [2 mg/ml](Sigma) and DNase [0.2 mg/ml](Sigma). Samples were spun at 350 g for 5 minutes and red blood cells were lysed from samples using RBC lysis buffer (BioLegend) in 10 mls for 10 minutes. Following a further spin at 350 g for 5 minutes, cells were seeded in culture flasks in DMEM containing 10% FCS, 1% Penicillin-Streptomycin, 1% L-Glutamine and 10% Insulin Transferrin Selenium (ITS). 24 hours after seeding, non-adherent cells were washed from the flasks. Cells were maintained by standard cell culture methods and by passage 2, the predominant cell type was CAFs, assessed by flow cytometry markers and morphology. CAFs between passage 4-9 were used to assess FAP probes and confirmed to be FAP^hi by flow cytometry.
CAFs were seeded into 96 well plates in a 100 μl media (complete DMEM as described above) at a density of 1×10^5 cells/ml to form a confluent monolayer within 24 hours. Wells containing cells had media removed and then were washed before buffer (DPBS)+/− inhibitors were added with the imaging probes. Immediately after adding imaging probes, the plate was transferred to the prewarmed spectrophotometer as above and read at 480/530 nm for one hour.

For data set [3], the system named is NSCLC patient tissue samples. Kind of data set: Fluorescence intensity and lifetime imaging (FLIM, KronoScan) of ex vivo NSCLC tissue. The data set is classed as cell-based, human. The settings on record: VBP (1:1000) added with FAP3; listed as VBP. The procedure: For imaging solutions, varying concentrations of rhFAP were prepared in blackened eppendorfs and FAP3 to a final concentration of 5 μm added and imaged as below. For biological specimens, NSCLC patient tissue samples from surgical resection were used fresh or snap frozen and stored at −80 until required. Small fragments (approx. 4 mm^3) incubated at 37° C. in a 96 well plate in phenyl-red free DMEM (Gibco) containing 10% FCS, 1% Penicillin-streptomycin and 1% L-Glutamine. For the inhibitor fragments VBP (1:1000) was added. Samples were then imaged using a clinically tractable novel fluorescence lifetime imaging system, KronoScan, with an imaging fibre providing a 400×400 um field of view. […] This spectrometer contains a 512 channel single photon avalanche diode (SPAD) sensor, allowing for the rapid collection of time resolved spectral fluorescence lifetime data. Fluorescence intensity and lifetime images were collected at 160×160 pixels over a 498-570 nm spectral range with an exposure time of 13 μs per pixel. […]
For each condition the tumour samples were imaged using a fibre placed at the tip of the tissue (baseline), and then again at 10 minute intervals following the additions of equimolar concentrations of probe+/− Inhibitor. […] Each condition and time-point data for both fluorescence intensity and lifetime were collected. […]

Data set [4] deals with T1, rhFAP (Homo sapiens, UniProt Q12884).
T1 sequence (Q12884 1-760): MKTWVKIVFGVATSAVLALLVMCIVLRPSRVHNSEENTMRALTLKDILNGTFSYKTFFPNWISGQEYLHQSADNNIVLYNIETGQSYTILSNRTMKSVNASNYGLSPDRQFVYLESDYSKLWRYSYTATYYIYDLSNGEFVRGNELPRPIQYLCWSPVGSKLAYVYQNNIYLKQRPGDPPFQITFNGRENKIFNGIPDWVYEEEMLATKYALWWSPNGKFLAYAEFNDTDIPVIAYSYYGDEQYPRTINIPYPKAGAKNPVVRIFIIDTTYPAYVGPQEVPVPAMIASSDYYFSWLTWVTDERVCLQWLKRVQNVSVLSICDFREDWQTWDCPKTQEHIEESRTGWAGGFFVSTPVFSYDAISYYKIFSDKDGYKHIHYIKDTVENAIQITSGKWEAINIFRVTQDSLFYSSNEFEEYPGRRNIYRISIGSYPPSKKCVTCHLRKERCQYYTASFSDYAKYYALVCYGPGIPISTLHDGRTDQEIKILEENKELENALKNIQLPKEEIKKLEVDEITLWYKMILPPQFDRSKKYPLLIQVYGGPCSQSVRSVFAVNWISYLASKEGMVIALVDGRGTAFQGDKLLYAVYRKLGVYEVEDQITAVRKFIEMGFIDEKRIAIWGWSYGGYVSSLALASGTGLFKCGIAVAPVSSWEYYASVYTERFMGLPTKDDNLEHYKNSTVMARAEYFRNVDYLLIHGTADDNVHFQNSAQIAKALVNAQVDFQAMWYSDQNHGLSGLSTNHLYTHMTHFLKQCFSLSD
Briefly: Probe cleavage by recombinant human FAP (fluorescence read). The data set is classed as biochemical. The settings on record: for cleavage by rhFAP: probe 5 μM, enzyme 0.1 μg/ml, read 480/530 nm; for signal (relative fluorescence intensity) with rhFAP: comparison between probe iterations; for FAP specificity (over PREP): from recombinant enzyme assessment.

Data set [5] concerns the target T2, rhPREP (Homo sapiens, UniProt P48147).
T2 sequence (P48147 1-710): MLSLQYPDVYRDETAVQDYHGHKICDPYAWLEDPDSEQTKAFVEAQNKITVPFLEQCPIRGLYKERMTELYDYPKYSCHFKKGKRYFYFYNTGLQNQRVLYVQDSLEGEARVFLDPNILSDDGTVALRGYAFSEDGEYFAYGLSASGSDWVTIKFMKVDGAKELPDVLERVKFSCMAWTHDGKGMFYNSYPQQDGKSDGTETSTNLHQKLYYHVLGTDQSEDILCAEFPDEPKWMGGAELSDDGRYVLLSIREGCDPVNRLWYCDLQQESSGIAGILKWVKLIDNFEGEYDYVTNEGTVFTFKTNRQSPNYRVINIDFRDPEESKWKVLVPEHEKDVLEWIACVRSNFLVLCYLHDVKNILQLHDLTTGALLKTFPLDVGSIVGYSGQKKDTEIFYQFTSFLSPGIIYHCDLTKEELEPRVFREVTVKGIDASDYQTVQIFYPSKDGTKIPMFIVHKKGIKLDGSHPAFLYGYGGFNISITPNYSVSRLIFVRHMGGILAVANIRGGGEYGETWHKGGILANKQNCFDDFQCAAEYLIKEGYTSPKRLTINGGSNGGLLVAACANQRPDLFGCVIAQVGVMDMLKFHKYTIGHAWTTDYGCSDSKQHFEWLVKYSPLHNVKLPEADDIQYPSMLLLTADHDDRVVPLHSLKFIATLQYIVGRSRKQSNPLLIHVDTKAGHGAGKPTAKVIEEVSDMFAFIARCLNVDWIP
Briefly: Probe cleavage by recombinant human PREP. The settings on record: probe 5 μM, enzyme 0.1 μg/ml, read 480/530 nm. The class given is biochemical.

Data set [6] deals with rhDPPIV (Homo sapiens, UniProt P27487). Kind of data set: Probe cleavage by recombinant human DPPIV (exopeptidase activity). The class given is biochemical. The settings on record: probe 5 μM, enzyme 0.1 μg/ml, read 480/530 nm.
Chain of rhDPPIV (P27487 whole entry): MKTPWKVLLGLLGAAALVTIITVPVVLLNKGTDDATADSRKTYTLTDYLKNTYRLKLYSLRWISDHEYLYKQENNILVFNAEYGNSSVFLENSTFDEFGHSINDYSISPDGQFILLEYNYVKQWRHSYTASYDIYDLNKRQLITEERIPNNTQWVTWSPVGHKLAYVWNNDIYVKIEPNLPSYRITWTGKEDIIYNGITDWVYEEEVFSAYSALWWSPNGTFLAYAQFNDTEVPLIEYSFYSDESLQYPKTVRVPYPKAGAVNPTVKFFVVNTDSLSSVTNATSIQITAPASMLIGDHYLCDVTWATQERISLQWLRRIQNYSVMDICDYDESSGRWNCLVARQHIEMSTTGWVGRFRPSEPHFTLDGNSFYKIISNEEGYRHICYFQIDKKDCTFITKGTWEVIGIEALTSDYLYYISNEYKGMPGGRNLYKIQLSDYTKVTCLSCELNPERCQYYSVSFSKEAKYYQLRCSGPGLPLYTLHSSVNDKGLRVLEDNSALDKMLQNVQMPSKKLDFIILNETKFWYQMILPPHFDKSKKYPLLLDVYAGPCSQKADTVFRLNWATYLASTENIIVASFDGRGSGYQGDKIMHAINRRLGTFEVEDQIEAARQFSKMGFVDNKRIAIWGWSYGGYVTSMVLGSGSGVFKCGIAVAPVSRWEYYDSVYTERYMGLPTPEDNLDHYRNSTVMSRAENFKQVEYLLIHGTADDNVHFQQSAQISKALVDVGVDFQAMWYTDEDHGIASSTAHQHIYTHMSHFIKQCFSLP
Data set [7] deals with FAP3.

For `CC(C)[C@H](NC(=O)[C@@H](N)CCCCNC(=O)c1ccccc1N=Nc1ccc(N(C)C)cc1)C(=O)N[C@H](CO)C(=O)N1CCC[C@H]1C(=O)N[C@@H](CC(N)=O)C(=O)N[C@@H](CCC(N)=O)C(=O)NCC(=O)N[C@@H](CCCCNC(=O)c1ccc2c(c1)C(=O)OC21c2ccc(O)cc2Oc2cc(O)ccc21)C(=O)NCCOCCOCC(=O)N[C@H](CCCCN)C(=O)NCCOCCOCC(=O)N[C@H](CCCCN)C(=O)NCCOCCOCC(=O)N[C@H](CCCCN)C(N)=O` [FAP3, Lys(MethylRed)-Val-(D)Ser-Pro-Asn-Gln-Gly-Lys(5-FAM)-[Peg2-(D)Lys]3-NH2] (H-K(X1)V[dS]PNQGK(5FAM)[AEEA][dK][AEEA][dK][AEEA][dK]-NH2), in data set [1], the clinical signs result is given as “no clinical signs” and the deaths result is recorded as “no deaths”. Besides, the “differences in body weights, body weight gains, food consumption, haematology, coagulation, clinical chemistry, organ weights and macroscopic and microscopic examinations” value in data set [1] (compared to a control group) is on record as “no differences”.
Regarding `CC(C)[C@H](N)C(=O)N1CCC[C@H]1B(O)O` [Val-boroPro], the “inhibition of FAP3 signal in CAFs” value in data set [2] is “inhibition of signal”; in data set [2] (listed as VBP), “signal was abrogated”. In data set [3], the “inhibition of FAP3 intensity and lifetime change in NSCLC tissue” value is on record as “inhibition; also recorded: abrogated”.
Regarding “FAM-Peg2-Gly-Pro-Gly-(D)Pro-(D)Asn-Gln-Lys(MethylRed)-NH2 [FAP1DLi-FAM]”, in data set [4], the “cleavage by rhFAP” value is reported as “lower rate of cleavage; also recorded: FAP activity was significantly reduced”. Moreover, the “cleavage by rhPREP” value is “cleaves; also recorded: partial reduction in activity” in data set [5] and “still demonstrated PREP cleavage” in data set [5] (listed as FAP1 DLi-FAM). Further, the “cleavage by rhDPPIV (exopeptidase activity)” value in data set [6] was “Neither FAP1Li-FAM or FAP1 DLi-FAM are cleaved”.
“FAM-Peg2-Gly-Pro-Gly-Pro-Asn-Gln-Lys(MethylRed)-NH2 [FAP1Li-FAM]”: in data set [4], the “signal (relative fluorescence intensity) with rhFAP” value is reported as “signal intensity of FAP1 is higher” and the “cleavage by rhFAP” value was “cleaved rapidly; also recorded: endopeptidase activity”. Moreover, the “cleavage by rhPREP” value in data set [5] is “cleaved more rapidly; also recorded: endopeptidase activity”. In addition, the “cleavage by rhDPPIV (exopeptidase activity)” value in data set [6] is on record as “Neither FAP1Li-FAM or FAP1 DLi-FAM are cleaved; also recorded: did not cleave”.
Regarding “FAP on cancer associated fibroblasts (CAFs) from NSCLC patient samples”, the “cleavage of FRET probe on a CAF monolayer (fluorescence 480/530 nm, one hour)” value in data set [7] is given as “FAP3 was cleaved by FAP^+CAFs, with inhibition of signal when co-incubated with Val-boroPro”.
On to “Lys(MethylRed)-(D)Ala-Pro-Ser-Lys(5-FAM)-[Peg2-(D)Lys]3-NH2 [FAP2BD-Ala]”, for which, in data set [4], the “signal (relative fluorescence intensity) with rhFAP” value is recorded as “reduced signal” and the “FAP specificity (over PREP)” value is listed as “FAP specificity over PREP”.
Turning to “Lys(MethylRed)-(D)Ser-Pro-Ser-Lys(5-FAM)-[Peg2-(D)Lys]3-NH2 [FAP2CD-Ser]”, in data set [4] (listed as D-Ser), the “signal (relative fluorescence intensity) with rhFAP” value is “reduced signal” and the “FAP specificity (over PREP)” value is given as “FAP specificity over PREP”. In addition, in data set [4], the “FAP specificity (over PREP)” value is “demonstrates FAP specificity” and the “cleavage by rhFAP” value is recorded as “highest rate of cleavage”. For the same molecule, in data set [5], the “cleavage by rhPREP” value is “without PREP cleavage”.
“Lys(MethylRed)-(D)Thr-Pro-Ser-Lys(5-FAM)-[Peg2-(D)Lys]3-NH2 [FAP2DD-Thr]”: in data set [4], the “signal (relative fluorescence intensity) with rhFAP” value was “reduced signal” and the “FAP specificity (over PREP)” value is “FAP specificity over PREP”.
For “Lys(MethylRed)-(β)Ala-Pro-Ser-Lys(5-FAM)-[Peg2-(D)Lys]3-NH2 [FAP2Fβ-Ala]” the same measures were “reduced signal” and “FAP specificity over PREP”.
With “Lys(MethylRed)-Ala-Pro-Ser-Lys(5-FAM)-[Peg2-(D)Lys]3-NH2 [FAP2AAla]”, the “cleavage by rhFAP” value in data set [4] is reported as “FAP activity was absent”. The “cleavage by rhPREP” value in data set [5] is reported as “is cleaved; also recorded: demonstrated cleavage by PREP”.
As for “Lys(MethylRed)-D-Tyr-Pro-Ser-Lys(5-FAM)-[Peg2-(D)Lys]3-NH2 [FAP2ED-Tyr]”, the “cleavage by rhFAP” value in data set [4] is reported as “loss of FAP activity”.
As for MMP-13 (recombinant enzyme), in data set [7], the “cleavage of FRET probe by recombinant enzyme (fluorescence)” value was “demonstrating no activity”.
